Columns and labels:
[1] = target: T1, HpRap1A (Hansenula polymorpha DL-1, UniProt W1Q7Z6 1-613); assay: SPR; kinetic fit; SPR: 10 mM HEPES-NaOH pH 7.5, 150 mM NaCl, 0.5 mM DTT, 0.05% Tween 20, 1 mg/ml BSA, 0.02 mg/ml salmon sperm DNA; competition 2 nM protein with 20 or 200 nM competitor. EMSA: 20 mM HEPES-NaOH pH 7.5, 50 mM NaCl, 0.2 mg/ml BSA, 5% glycerol, 0.1 mg/ml salmon sperm DNA, room temperature; conditions: protein: recombinant; 3' overhang 20 nt on strand 2
T1 sequence: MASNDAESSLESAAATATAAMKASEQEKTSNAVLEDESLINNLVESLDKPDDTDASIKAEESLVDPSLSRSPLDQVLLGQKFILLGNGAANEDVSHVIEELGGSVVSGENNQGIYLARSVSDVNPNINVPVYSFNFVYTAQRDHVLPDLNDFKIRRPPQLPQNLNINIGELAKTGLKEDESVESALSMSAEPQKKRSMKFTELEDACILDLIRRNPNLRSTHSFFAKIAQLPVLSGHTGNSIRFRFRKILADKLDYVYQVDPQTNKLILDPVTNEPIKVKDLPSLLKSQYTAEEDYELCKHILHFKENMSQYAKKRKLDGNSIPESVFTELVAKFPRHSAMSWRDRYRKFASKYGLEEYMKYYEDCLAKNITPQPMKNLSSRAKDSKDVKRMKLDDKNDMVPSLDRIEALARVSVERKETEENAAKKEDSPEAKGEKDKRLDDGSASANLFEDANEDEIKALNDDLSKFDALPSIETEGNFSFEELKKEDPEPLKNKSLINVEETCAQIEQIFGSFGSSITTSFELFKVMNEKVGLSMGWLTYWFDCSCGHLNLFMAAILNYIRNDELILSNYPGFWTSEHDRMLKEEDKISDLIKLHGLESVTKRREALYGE

[2] = target: T2, HpRap1B (Hansenula polymorpha DL-1, UniProt W1QDN2 1-576); assay: SPR; SPR: 10 mM HEPES-NaOH pH 7.5, 150 mM NaCl, 0.5 mM DTT, 0.05% Tween 20, 1 mg/ml BSA, 0.02 mg/ml salmon sperm DNA; competition 2 nM protein with 20 or 200 nM competitor. EMSA: 20 mM HEPES-NaOH pH 7.5, 50 mM NaCl, 0.2 mg/ml BSA, 5% glycerol, 0.1 mg/ml salmon sperm DNA, room temperature; conditions: protein: recombinant; 3' overhang 20 nt on strand 2
T2 sequence: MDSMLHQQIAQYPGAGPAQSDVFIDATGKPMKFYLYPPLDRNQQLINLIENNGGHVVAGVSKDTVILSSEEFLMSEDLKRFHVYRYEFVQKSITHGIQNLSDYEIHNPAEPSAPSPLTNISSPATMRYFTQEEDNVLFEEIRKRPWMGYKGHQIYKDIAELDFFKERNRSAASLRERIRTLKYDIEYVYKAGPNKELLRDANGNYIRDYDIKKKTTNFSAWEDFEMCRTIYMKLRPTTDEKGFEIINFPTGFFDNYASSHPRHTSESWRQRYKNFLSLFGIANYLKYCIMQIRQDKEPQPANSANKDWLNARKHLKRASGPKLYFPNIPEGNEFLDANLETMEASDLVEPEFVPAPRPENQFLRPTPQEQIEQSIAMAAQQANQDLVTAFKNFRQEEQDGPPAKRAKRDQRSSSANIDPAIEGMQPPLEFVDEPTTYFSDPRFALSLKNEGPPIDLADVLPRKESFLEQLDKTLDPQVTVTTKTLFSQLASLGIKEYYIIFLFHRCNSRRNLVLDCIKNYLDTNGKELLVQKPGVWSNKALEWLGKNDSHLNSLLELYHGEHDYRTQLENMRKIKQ

[3] = target: T1, HpRap1A; assay: competition SPR; score - vs VIIrAbs surface; SPR: 10 mM HEPES-NaOH pH 7.5, 150 mM NaCl, 0.5 mM DTT, 0.05% Tween 20, 1 mg/ml BSA, 0.02 mg/ml salmon sperm DNA; competition 2 nM protein with 20 or 200 nM competitor. EMSA: 20 mM HEPES-NaOH pH 7.5, 50 mM NaCl, 0.2 mg/ml BSA, 5% glycerol, 0.1 mg/ml salmon sperm DNA, room temperature; conditions: protein: recombinant; blunt
[4] = target: T2, HpRap1B; assay: competition SPR; score ++ vs PICKU surface; SPR: 10 mM HEPES-NaOH pH 7.5, 150 mM NaCl, 0.5 mM DTT, 0.05% Tween 20, 1 mg/ml BSA, 0.02 mg/ml salmon sperm DNA; competition 2 nM protein with 20 or 200 nM competitor. EMSA: 20 mM HEPES-NaOH pH 7.5, 50 mM NaCl, 0.2 mg/ml BSA, 5% glycerol, 0.1 mg/ml salmon sperm DNA, room temperature; conditions: protein: recombinant; blunt
[5] = target: T1, HpRap1A; assay: competition SPR; score +++ vs VIIrAbs surface; SPR: 10 mM HEPES-NaOH pH 7.5, 150 mM NaCl, 0.5 mM DTT, 0.05% Tween 20, 1 mg/ml BSA, 0.02 mg/ml salmon sperm DNA; competition 2 nM protein with 20 or 200 nM competitor. EMSA: 20 mM HEPES-NaOH pH 7.5, 50 mM NaCl, 0.2 mg/ml BSA, 5% glycerol, 0.1 mg/ml salmon sperm DNA, room temperature; conditions: protein: recombinant; blunt
[6] = target: T2, HpRap1B; assay: competition SPR; score - vs PICKU surface; SPR: 10 mM HEPES-NaOH pH 7.5, 150 mM NaCl, 0.5 mM DTT, 0.05% Tween 20, 1 mg/ml BSA, 0.02 mg/ml salmon sperm DNA; competition 2 nM protein with 20 or 200 nM competitor. EMSA: 20 mM HEPES-NaOH pH 7.5, 50 mM NaCl, 0.2 mg/ml BSA, 5% glycerol, 0.1 mg/ml salmon sperm DNA, room temperature; conditions: protein: recombinant; blunt
[7] = target: T1, HpRap1A; assay: SPR; SPR: 10 mM HEPES-NaOH pH 7.5, 150 mM NaCl, 0.5 mM DTT, 0.05% Tween 20, 1 mg/ml BSA, 0.02 mg/ml salmon sperm DNA; competition 2 nM protein with 20 or 200 nM competitor. EMSA: 20 mM HEPES-NaOH pH 7.5, 50 mM NaCl, 0.2 mg/ml BSA, 5% glycerol, 0.1 mg/ml salmon sperm DNA, room temperature; conditions: protein: recombinant; 3' overhang 20 nt on strand 2
[8] = target: T2, HpRap1B; assay: SPR; kinetic fit; SPR: 10 mM HEPES-NaOH pH 7.5, 150 mM NaCl, 0.5 mM DTT, 0.05% Tween 20, 1 mg/ml BSA, 0.02 mg/ml salmon sperm DNA; competition 2 nM protein with 20 or 200 nM competitor. EMSA: 20 mM HEPES-NaOH pH 7.5, 50 mM NaCl, 0.2 mg/ml BSA, 5% glycerol, 0.1 mg/ml salmon sperm DNA, room temperature; conditions: protein: recombinant; 3' overhang 20 nt on strand 2

B1: RPS16 (dsDNA)
DNA 1: CAAACCCCGTGTAAGGGTGCCTA
DNA 2: TAGGCACCCTTACACGGGGTTTGCCTCTACGTCCTCCTGCTCC
Kd [1]: 0.5 ± 0.08 nM
binding result [2]: no binding

B2: CANAR (competitor) (dsDNA)
DNA 1: GGTGTTGGGTGTTGGGTGTTGGG
DNA 2: CCCAACACCCAACACCCAACACC
binding result [3]: no binding
binding result [4]: binds

B3: HANPO4 (competitor) (dsDNA)
DNA 1: GGGTGGCGGGGTGGCGGGGTGGCGGGGTGGCG
DNA 2: CGCCACCCCGCCACCCCGCCACCCCGCCACCC
binding result [3]: no binding

B4: DEBHA (dsDNA)
DNA 1: GTGTTGAGGTGTAGGGATGTTGA
DNA 2: TCAACATCCCTACACCTCAACAC
binding result [5]: binds

B5: VIIrAbs (competitor) (dsDNA)
DNA 1: GGCAGGCGGTGTAGGGATGCGGC
DNA 2: GCCGCATCCCTACACCGCCTGCC
binding result [6]: no binding
binding result [5]: binds

B6: PACTA (dsDNA)
DNA 1: TGTGAGTGGTGTGAGTGGTGTGAGTGG
DNA 2: CCACTCACACCACTCACACCACTCACA
binding result [3]: no binding

B7: PICME (dsDNA)
DNA 1: TAGAACTAGGTGTGCGGGGTATAATAG
DNA 2: CTATTATACCCCGCACACCTAGTTCTA
binding result [3]: no binding
binding result [4]: binds

B8: RPS22b (dsDNA)
DNA 1: AATGTTCGGTTCGAGGAGTTCTT
DNA 2: AAGAACTCCTCGAACCGAACATTCCTCTACGTCCTCCTGCTCC
binding result [7]: no binding

B9: DEKBR (dsDNA)
DNA 1: GGATTGGTGGATTGGTGGATTGGT
DNA 2: ACCAATCCACCAATCCACCAATCC
binding result [3]: no binding
binding result [6]: no binding

B10: CANMA (dsDNA)
DNA 1: CTCGCTTGGTGTACGGATGCAGA
DNA 2: TCTGCATCCGTACACCAAGCGAG
binding result [5]: binds

B11: PICKU (SPR) (dsDNA)
DNA 1: TGAACTAGGAGCGAGGTGTGTTAC
DNA 2: GTAACACACCTCGCTCCTAGTTCACCTCTACGTCCTCCTGCTCC
Kd [8]: 0.27 ± 0.08 nM
binding result [7]: no binding

B12: PICPA (dsDNA)
DNA 1: GGATGCTGGATGCTGGATGCTGGATGCT
DNA 2: AGCATCCAGCATCCAGCATCCAGCATCC
binding result [3]: no binding
binding result [6]: no binding

B13: SACCE (competitor) (dsDNA)
DNA 1: GTGTGTGGGTGTGTGGGTGTGTG
DNA 2: CACACACCCACACACCCACACAC
binding result [4]: binds

B14: RPS14 (dsDNA)
DNA 1: GTGTTCAGGTGTGAGGTGTGTTT
DNA 2: AAACACACCTCACACCTGAACACCCTCTACGTCCTCCTGCTCC
Kd [8]: 0.048 ± 0.007 nM
binding result [7]: no binding

B15: CANAL (competitor) (dsDNA)
DNA 1: ACTTCTTGGTGTACGGATGTCTA
DNA 2: TAGACATCCGTACACCAAGAAGT
binding result [5]: binds

B16: CANAL (SPR) (dsDNA)
DNA 1: ACTTCTTGGTGTACGGATGTCTA
DNA 2: TAGACATCCGTACACCAAGAAGTCCTCTACGTCCTCCTGCTCC
Kd [1]: 0.05 ± 0.014 nM

B17: CANAR (SPR) (dsDNA)
DNA 1: GGTGTTGGGTGTTGGGTGTTGGG
DNA 2: CCCAACACCCAACACCCAACACCCCTCTACGTCCTCCTGCTCC
binding result [7]: no binding

B18: RPL36b (dsDNA)
DNA 1: GGACAGTGGTGTAGGGGGTAGAG
DNA 2: CTCTACCCCCTACACCACTGTCCCCTCTACGTCCTCCTGCTCC
binding result [7]: no binding

B19: rnd2 (dsDNA)
DNA 1: AAATCTAGACATGAAAAAAAAAATGTTAGTAATCGAAATCTC
DNA 2: GAGATTTCGATTACTAACATTTTTTTTTTCATGTCTAGATTT
binding result [3]: no binding
binding result [6]: no binding

B20: rnd1 (SPR) (dsDNA)
DNA 1: ACGACTCACTGTAGATACGACTCACTGTAGAT
DNA 2: ATCTACAGTGAGTCGTATCTACAGTGAGTCGTCCTCTACGTCCTCCTGCTCC
binding result [7]: no binding
binding result [2]: no binding

B21: rnd1 (competitor) (dsDNA)
DNA 1: ACGACTCACTGTAGATACGACTCACTGTAGAT
DNA 2: ATCTACAGTGAGTCGTATCTACAGTGAGTCGT
binding result [3]: no binding
binding result [6]: no binding
